{"source": "paper PMC7244744", "about": "“Vesicular transport mediates the uptake of cytoplasmic proteins into mitochondria in Drosophila melanogaster” (Nature Communications, 2020)", "target": "the molecule itself", "assay": "SDS-PAGE and western blot with and without DTT; flight-muscle tissue homogenates of wild-type flies, mitochondrial fraction; monomer band and upper band (Dosmit*); analysed in the presence and absence of DTT"}
{"protein": "Dosmit (downsizing mitochondria), endogenous in fly flight muscle (natural protein, UniProt Q9VAM6 1-133, looked up, endogenous protein of flight muscle; Seen as monomer and dimer (Dosmit*) bands on western blots; the dimer band is reduced to the monomer by DTT; also called Dosmit* (dimer form); CG1458; source: endogenous, flight-muscle tissue homogenate of wild-type flies (mitochondrial fraction)) MEPISHLVKSSLPNYLSSLPVPDSIGGWFKLSFKDWLALIPPTVVVAGLGYTAYLAYCPAARASCAAKNSGRCNNHIRKNEPKVVDMIDVEDIAEKAAFCRCWKTKNWPYCDGSHGEHNKQTGDNVGPIVIKK", "values": [{"measurement": "stoichiometry N", "result": 2}]}
